{
  "source": "paper doi:10.1101/2022.09.28.508705",
  "assay_in_all_cases": "crystal structure",
  "key": {"[1]": {"molecular_target": "mVSG1954 N-terminal domain (T. brucei brucei, strain Lister 427)"}, "[2]": {"molecular_target": "mVSG397 N-terminal domain (T. brucei brucei, strain Lister 427)"}, "[3]": {"molecular_target": "mVSG531 N-terminal domain (T. brucei brucei, strain Lister 427)"}},
  "data": [
    {"substance": "mVSG1954 N-terminal domain (domain or fragment)", "values": [
      {"measurement": "stoichiometry N", "setting": "[1]", "value": 3}
    ]},
    {"substance": "mVSG397 N-terminal domain (domain or fragment)", "values": [
      {"measurement": "stoichiometry N", "setting": "[2]", "value": 2}
    ]},
    {"substance": "mVSG531 N-terminal domain (domain or fragment)", "values": [
      {"measurement": "stoichiometry N", "setting": "[3]", "value": 2}
    ]}
  ]
}
